Conditions in all cases: pH 8; 30 °C; part of the chain shown
Substrate in one series: p-NP-C12
Substrate in another series: p-NP-C2
Substrate in the next series: p-NP-C4
Substrate in another series: p-NP-C6
Substrate in another series: p-NP-C8

Results on one protein are retold here after the PETadex activity labels (doi:10.1016/j.bbrc.2018.11.148).

B1: unnamed (protein)
chain: MNFPRASRLMQAAVLGGLMAVSAAATAQTNPYARGPNPTAASLEASAGPFTVRSFTVSRPSGYGAGTVYYPTNAGGTVGAIAIVPGYTARQSSIKWWGPRLASHGFVVITIDTNSTLDQPSSRSSQQMAALRQVASLNGTSSSPIYGKVDTARMGVMGWSMGGGGSLISAANNPSLKAAAPQAPWDSSTNFSSVTVPTLIFACENDSIAPVNSSALPIYDSMSRNAKQFLEINGGSHSCANSGNSNQALIGKKGVAWMKRFMDNDTRYSTFACENPNSTRVSDFRTANCS
By Km is commonly meant the concentration of substrate that gives half-maximal velocity. As usually defined, the kcat is the number of substrate molecules converted per active site and unit of time at saturation. The kcat/Km is the second-order rate constant that governs catalysis at low substrate concentration. On to B1, for which the Km with p-NP-C12 worked out at 2280 µM; with p-NP-C2, 431 µM; with p-NP-C4, 315 µM; with p-NP-C6, 52.8 µM; with p-NP-C8, 48.1 µM. Further, the kcat in the series with p-NP-C12 turned out to be 1530 s⁻¹; in the series with p-NP-C2 it was 1590 s⁻¹; with p-NP-C4, 1350 s⁻¹; in the series with p-NP-C6 it was 1350 s⁻¹; in the series with p-NP-C8 it was 519 s⁻¹. Also, the kcat/Km is 671000 M⁻¹ s⁻¹ with p-NP-C12; 3.69e+06 M⁻¹ s⁻¹ in the series with p-NP-C2; 4.3e+06 M⁻¹ s⁻¹ with p-NP-C4; 2.55e+07 M⁻¹ s⁻¹ with p-NP-C6; 1.08e+07 M⁻¹ s⁻¹ with p-NP-C8.
